Results published in PMC11039692, “SRY-Box transcription factor 9 triggers YAP nuclear entry via direct interaction in tumors” (Signal Transduction and Targeted Therapy, 2024).

Tests used:
[1] = target: T1, His-tagged YAP purified from Escherichia coli (human, UniProt P46937 1-504); experiment: MST; SOX9-HMG (aa 98–181) with YAP protein; which of the two was labelled is not told; 50 mM Tris-HCl pH 7.4, 150 mM NaCl, 0.05% Tween-20; room temperature; conditions: both partners purified
T1 construct: YAP, recombinant; Labelled with RED-tris-NTA 2nd Generation dye where it was the labelled partner; also called YAP protein; source: Escherichia coli, purified
T1 sequence (P46937 whole entry, the tested form may be a part): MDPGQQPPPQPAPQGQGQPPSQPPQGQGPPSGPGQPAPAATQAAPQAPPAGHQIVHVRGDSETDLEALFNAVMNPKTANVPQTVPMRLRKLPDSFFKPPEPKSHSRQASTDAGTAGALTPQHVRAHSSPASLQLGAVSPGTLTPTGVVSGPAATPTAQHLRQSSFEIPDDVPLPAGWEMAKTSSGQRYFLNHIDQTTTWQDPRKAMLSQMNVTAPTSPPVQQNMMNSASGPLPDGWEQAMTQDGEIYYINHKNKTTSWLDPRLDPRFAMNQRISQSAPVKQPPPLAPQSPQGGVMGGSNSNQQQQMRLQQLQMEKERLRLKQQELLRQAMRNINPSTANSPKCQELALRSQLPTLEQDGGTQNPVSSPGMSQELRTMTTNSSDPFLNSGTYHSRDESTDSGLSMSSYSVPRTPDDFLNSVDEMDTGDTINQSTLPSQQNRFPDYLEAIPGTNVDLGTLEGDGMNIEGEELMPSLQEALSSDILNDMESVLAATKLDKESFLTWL

[2] = target: T1, His-tagged YAP purified from …; experiment: MST; His-tagged YAP labelled with 25 nM RED-tris-NTA 2nd Generation dye, SOX9 peptide serially diluted; 50 mM Tris-HCl pH 7.4, 150 mM NaCl, 0.05% Tween-20; room temperature; 40% LED power, medium MST power; conditions: both partners purified

Binder	Kd [1]	Kd [2]
SOX9-HMG domain (aa 98–181) (domain or fragment, SOX9 HMG domain, residues 98-181; The limits 98-181 are printed for the MST with YAP protein; source: Escherichia coli, purified) not shown	540 nM	
RVNGSSKNKPHVKRPMNAFMVWAQAARRKLADQ (peptide, UniProt P48436 94-126, looked up) [nNLS-containing fragment of SOX9 (aa 94–126)]		1100 nM
AFMVWAQAARRKLADQ (peptide, UniProt P48436 111-126, looked up) [peptide S-A1 (SOX9 amino acids 111–126)]		2200 nM
